These results are taken from patent US20240279310A1.

Read-outs that look alike come from different tables or passages of the source.

The target of assay [1] is recombinant human BAFF (BioLegend) (human) (UniProt Q9Y275). The assay is described as follows: cell-based or functional assay.
Assay [2] concerns the target recombinant human APRIL (Tonbo Biosciences) (human) (UniProt O75888). The assay is described as follows: cell-based or functional assay.
The target of assay [3] is APRIL+BAFF (15 nM APRIL+10 nM BAFF) in combination. The assay is described as follows: cell-based or functional assay.
For assay [4], the target named is recombinant human BAFF (BioLegend) (human) (UniProt Q9Y275). The assay is described as follows: cell-based or functional assay. Set-up: IC50 APRIL (Δ TACI 30-110-Fc) / IC50 BAFF (Δ TACI 30-110-Fc): unit not given beside the values.
The target of assay [5] is recombinant human APRIL (Tonbo Biosciences) (human) (UniProt O75888). The assay is described as follows: cell-based or functional assay. The arrangement: IC50 APRIL (Δ TACI 30-110-Fc) / IC50 BAFF (Δ TACI 30-110-Fc): unit not given beside the values.
recombinant human APRIL (Tonbo Biosciences) (human), sequence (O75888 105-250 limits assumed): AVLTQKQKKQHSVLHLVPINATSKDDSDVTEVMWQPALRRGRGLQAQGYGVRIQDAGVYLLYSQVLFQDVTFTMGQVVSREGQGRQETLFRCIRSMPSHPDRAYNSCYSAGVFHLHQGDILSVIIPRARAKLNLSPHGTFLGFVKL
Assay [6] concerns the target recombinant human BAFF (BioLegend) (human) (UniProt Q9Y275). The assay can be described thus: cell-based or functional assay. Set-up: IC50 APRIL (Δ TACI 30-110) / IC50 BAFF (Δ TACI 30-110): unit not given beside the values.
Assay [7] deals with recombinant human APRIL (Tonbo Biosciences) (human) (UniProt O75888). The assay is described as follows: cell-based or functional assay. The arrangement: IC50 APRIL (Δ TACI 30-110) / IC50 BAFF (Δ TACI 30-110): unit not given beside the values.
Assay [8] concerns the target recombinant human BAFF (BioLegend) (human) (UniProt Q9Y275).

TACI 13-118-Fc (WT TACI 13-118, SEQ ID NO:131, fused to the Fc of SEQ ID NO: 73) (Fc fusion), sequence (chain): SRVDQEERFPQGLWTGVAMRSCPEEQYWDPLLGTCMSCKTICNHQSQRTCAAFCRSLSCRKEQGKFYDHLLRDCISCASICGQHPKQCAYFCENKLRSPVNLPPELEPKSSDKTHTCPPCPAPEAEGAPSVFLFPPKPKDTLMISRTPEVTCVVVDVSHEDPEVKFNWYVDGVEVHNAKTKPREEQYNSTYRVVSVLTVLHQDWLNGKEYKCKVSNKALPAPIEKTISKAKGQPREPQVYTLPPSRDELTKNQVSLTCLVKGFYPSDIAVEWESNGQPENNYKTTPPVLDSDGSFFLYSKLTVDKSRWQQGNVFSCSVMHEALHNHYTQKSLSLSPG
TACI 30-110-Fc (WT TACI 30-110, SEQ ID NO:130, fused to the Fc of SEQ ID NO: 73) (Fc fusion), sequence (chain): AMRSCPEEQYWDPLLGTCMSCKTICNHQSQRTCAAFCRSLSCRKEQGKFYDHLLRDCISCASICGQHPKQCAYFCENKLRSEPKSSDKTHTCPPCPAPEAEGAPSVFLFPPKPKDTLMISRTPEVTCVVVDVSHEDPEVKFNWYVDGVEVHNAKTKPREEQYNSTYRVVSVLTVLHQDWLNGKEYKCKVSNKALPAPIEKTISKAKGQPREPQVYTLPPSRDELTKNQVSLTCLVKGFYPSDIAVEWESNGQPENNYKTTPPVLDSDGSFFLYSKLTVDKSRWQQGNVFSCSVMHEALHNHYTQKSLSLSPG
Telitacicept/Tai'ai (RemeGen) (Fc fusion), sequence (chain): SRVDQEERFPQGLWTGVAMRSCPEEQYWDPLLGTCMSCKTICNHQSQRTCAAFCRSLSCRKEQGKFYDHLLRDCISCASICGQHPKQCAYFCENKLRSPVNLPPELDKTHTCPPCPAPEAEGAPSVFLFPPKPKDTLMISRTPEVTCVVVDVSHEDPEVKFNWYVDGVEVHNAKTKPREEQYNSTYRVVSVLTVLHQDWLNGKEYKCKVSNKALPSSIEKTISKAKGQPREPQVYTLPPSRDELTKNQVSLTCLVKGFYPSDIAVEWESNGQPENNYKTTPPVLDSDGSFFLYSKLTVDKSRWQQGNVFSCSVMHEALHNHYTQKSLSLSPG

With “TACI vTD-Fc with the vTD of SEQ ID NO: 187 (R84Q, A101D) (Fc fusion)”, in assay [1], the BAFF IC50 (pM) was 2350 pM and the BAFF IC50 (Δ WT) was 1.27. Moreover, in assay [2], the APRIL IC50 (pM) is 11200 pM and the APRIL IC50 (Δ WT) was determined as 0.91.
For “TACI vTD-Fc with the vTD of SEQ ID NO: 191 (K77E, F78Y) (Fc fusion)”, in that order: 1970 pM, 1.06, 10100 pM and 0.82.
For “TACI vTD-Fc with the vTD of SEQ ID NO: 24 (K77E, R84Q) (Fc fusion)”, in assay [1], the BAFF IC50 (pM) is 2260 pM and the BAFF IC50 (Δ WT) stood at 1.22. Besides, in assay [2], the APRIL IC50 (pM) came out at 4260 pM and the APRIL IC50 (Δ WT) was 0.35.
For “TACI vTD-Fc with the vTD of SEQ ID NO: 189 (A101D, Y102D) (Fc fusion)”, in that order: 1950 pM, 1.05, 33600 pM and 2.72.
Take “Telitacicept/Tai'ai (RemeGen) (Fc fusion)”: the IC50 (pM) BAFF + APRIL in assay [3] stood at 16800 pM.
On to “TACI 13-118-Fc (WT TACI 13-118, SEQ ID NO:131, fused to the Fc of SEQ ID NO: 73) (Fc fusion)”, for which, in assay [4], the IC50 (nM) BAFF amounted to 7700 nM and the IC50 BAFF (Δ TACI 30-110-Fc) was 1.33. In assay [5], the IC50 (nM) APRIL worked out at 9100 nM and the IC50 APRIL (Δ TACI 30-110-Fc) turned out to be 2.37. In addition, in assay [6], the IC50 (nM) BAFF was determined as 8450 nM and the IC50 BAFF (Δ TACI 30-110) was 1.88. Moreover, in assay [7], the IC50 (nM) APRIL stood at 7810 nM and the IC50 APRIL (Δ TACI 30-110) worked out at 1.81. Further, in assay [1], the BAFF IC50 (pM) turned out to be 7900 pM and the BAFF IC50 (Δ WT) came to 4.26.
Consider “TACI vTD-Fc with the vTD of SEQ ID NO: 190 (Y102D) (Fc fusion)”, for which, in assay [1], the BAFF IC50 (pM) was found to be 1860 pM and the BAFF IC50 (Δ WT) came to 1. In addition, in assay [2], the APRIL IC50 (pM) is 11600 pM and the APRIL IC50 (Δ WT) turned out to be 0.94.
For “TACI vTD-Fc with the vTD of SEQ ID NO: 177 (Q75E) (Fc fusion)”, in that order: 1460 pM, 0.79, 1940 pM and 0.16.
For the substance “TACI vTD-Fc with the vTD of SEQ ID NO: 178 (Q75E, K77E) (Fc fusion)”, in assay [1], the BAFF IC50 (pM) was found to be 1890 pM and the BAFF IC50 (Δ WT) came to 1.02. In assay [2], the APRIL IC50 (pM) stood at 10700 pM and the APRIL IC50 (Δ WT) worked out at 0.87.
Regarding “TACI vTD-Fc with the vTD of SEQ ID NO: 25 (K77E, A101D) (Fc fusion)”, in assay [1], the BAFF IC50 (pM) amounted to 1960 pM and the BAFF IC50 (Δ WT) came out at 1.06. Besides, in assay [2], the APRIL IC50 (pM) turned out to be 2040 pM and the APRIL IC50 (Δ WT) worked out at 0.17.
For the substance BAFF-R ECD (control) (receptor), in assay [1], the BAFF IC50 (pM) came out at 53200 pM and the BAFF IC50 (Δ WT) worked out at 28.7.
For “TACI vTD-Fc with the vTD of SEQ ID NO: 192 (K77E, Y102D) (Fc fusion)”, in assay [1], the BAFF IC50 (pM) was 2180 pM and the BAFF IC50 (Δ WT) stood at 1.17. In assay [2], the APRIL IC50 (pM) amounted to 891 pM and the APRIL IC50 (Δ WT) was 0.07.
Take “TACI vTD-Fc with the vTD of SEQ ID NO: 181 (Q75E, Y102D) (Fc fusion)”: in assay [1], the BAFF IC50 (pM) was 2150 pM and the BAFF IC50 (Δ WT) came out at 1.16. Also, in assay [2], the APRIL IC50 (pM) was 11100 pM and the APRIL IC50 (Δ WT) turned out to be 0.9.
For “TACI vTD-Fc with the vTD of SEQ ID NO: 180 (Q75E, A101D) (Fc fusion)”, in assay [1], the BAFF IC50 (pM) was found to be 2360 pM and the BAFF IC50 (Δ WT) amounted to 1.27. Also, in assay [2], the APRIL IC50 (pM) is 20000 pM and the APRIL IC50 (Δ WT) worked out at 1.62.
For “TACI vTD-Fc with the vTD of SEQ ID NO: 32 (K77E) (Fc fusion)”, in that order: 1540 pM, 0.83, 159 pM and 0.01.
For the substance “27 TACI CRD2-Fc (TACI vTD SEQ ID NO:27, Q75E/R84Q) (Fc fusion)”, in assay [4], the IC50 (nM) BAFF turned out to be 1390 nM and the IC50 BAFF (Δ TACI 30-110-Fc) stood at 0.24. For the same substance, in assay [5], the IC50 (nM) APRIL was found to be 262 nM and the IC50 APRIL (Δ TACI 30-110-Fc) turned out to be 0.07. For the same substance, in assay [1], the BAFF IC50 (pM) was found to be 1460 pM and the BAFF IC50 (Δ WT) was 0.79. Moreover, in assay [2], the APRIL IC50 (pM) stood at 11800 pM and the APRIL IC50 (Δ WT) came to 0.96.
Consider “TACI 13-118, with K77E/F78Y/Y102D, fused to the Fc of SEQ ID NO:73 (Fc fusion)”, for which, in assay [6], the IC50 (nM) BAFF worked out at 2050 nM and the IC50 BAFF (Δ TACI 30-110) turned out to be 0.46. Besides, in assay [7], the IC50 (nM) APRIL was found to be 848 nM and the IC50 APRIL (Δ TACI 30-110) came out at 0.2. Further, in assay [1], the BAFF IC50 (pM) was 1990 pM and the BAFF IC50 (Δ WT) is 1.07. Also, in assay [2], the APRIL IC50 (pM) stood at 13200 pM and the APRIL IC50 (Δ WT) is 1.07.
Take “TACI vTD-Fc with the vTD of SEQ ID NO: 183 (F78Y) (Fc fusion)”: in assay [1], the BAFF IC50 (pM) was found to be 1640 pM and the BAFF IC50 (Δ WT) amounted to 0.88. For the same substance, in assay [2], the APRIL IC50 (pM) stood at 176 pM and the APRIL IC50 (Δ WT) was 0.01.
Take “TACI 30-110-Fc (WT TACI 30-110, SEQ ID NO:130, fused to the Fc of SEQ ID NO: 73) (Fc fusion)”: in assay [4], the IC50 (nM) BAFF is 5770 nM and the IC50 BAFF (Δ TACI 30-110-Fc) turned out to be 1. For the same substance, in assay [5], the IC50 (nM) APRIL is 3850 nM and the IC50 APRIL (Δ TACI 30-110-Fc) turned out to be 1. In assay [6], the IC50 (nM) BAFF was 4490 nM and the IC50 BAFF (Δ TACI 30-110) was found to be 1. In assay [7], the IC50 (nM) APRIL was 4320 nM and the IC50 APRIL (Δ TACI 30-110) worked out at 1.
Regarding “TACI vTD-Fc with the vTD of SEQ ID NO: 184 (F78Y, R84Q) (Fc fusion)”, in assay [1], the BAFF IC50 (pM) is 2260 pM and the BAFF IC50 (Δ WT) turned out to be 1.22. In assay [2], the APRIL IC50 (pM) is 2620 pM and the APRIL IC50 (Δ WT) was 0.21.
For “TACI vTD-Fc with the vTD of SEQ ID NO: 179 (Q75E, F78Y) (Fc fusion)”, in that order: 1790 pM, 0.97, 13400 pM and 1.09.
The like results for “TACI vTD-Fc with the vTD of SEQ ID NO: 185 (F78Y, A101D) (Fc fusion)” were, in that order, 1850 pM, 1, 2020 pM and 0.16.
With “29 TACI CRD2-Fc (TACI vTD SEQ ID NO:29, K77E/A101D/Y102D) (Fc fusion)”, in assay [4], the IC50 (nM) BAFF turned out to be 1340 nM and the IC50 BAFF (Δ TACI 30-110-Fc) is 0.23. Also, in assay [5], the IC50 (nM) APRIL was 339 nM and the IC50 APRIL (Δ TACI 30-110-Fc) is 0.09. Besides, in assay [1], the BAFF IC50 (pM) amounted to 1180 pM and the BAFF IC50 (Δ WT) was 0.64. Also, in assay [2], the APRIL IC50 (pM) came out at 2910 pM and the APRIL IC50 (Δ WT) was 0.24.
In the case of “TACI vTD-Fc with the vTD of SEQ ID NO: 23 (A101D) (Fc fusion)”, in assay [1], the BAFF IC50 (pM) amounted to 1830 pM and the BAFF IC50 (Δ WT) worked out at 0.99. Also, in assay [2], the APRIL IC50 (pM) was determined as 8380 pM and the APRIL IC50 (Δ WT) was found to be 0.68.
As to “TACI vTD-Fc with the vTD of SEQ ID NO: 186 (F78Y, Y102D) (Fc fusion)”, in assay [1], the BAFF IC50 (pM) turned out to be 1960 pM and the BAFF IC50 (Δ WT) is 1.06. Besides, in assay [2], the APRIL IC50 (pM) worked out at 8490 pM and the APRIL IC50 (Δ WT) turned out to be 0.69.
Consider “TACI vTD-Fc with the vTD of SEQ ID NO: 30 (R84Q) (Fc fusion)”, for which the IC50 (read off the curve) in assay [8] turned out to be 0.001 µM. Besides, in assay [1], the BAFF IC50 (pM) turned out to be 5490 pM and the BAFF IC50 (Δ WT) was determined as 2.96. Moreover, in assay [2], the APRIL IC50 (pM) stood at 566 pM and the APRIL IC50 (Δ WT) came out at 0.05.
As for “TACI vTD-Fc with the vTD of SEQ ID NO: 188 (R84Q, Y102D) (Fc fusion)”, in assay [1], the BAFF IC50 (pM) is 1860 pM and the BAFF IC50 (Δ WT) stood at 1.01. For the same substance, in assay [2], the APRIL IC50 (pM) came out at 12300 pM and the APRIL IC50 (Δ WT) was found to be 1.
For the substance “TACI vTD-Fc with the vTD of SEQ ID NO: 182 (K77E, F78Y, R84Q) (Fc fusion)”, in assay [1], the BAFF IC50 (pM) came to 2210 pM and the BAFF IC50 (Δ WT) was 1.19. Further, in assay [2], the APRIL IC50 (pM) came out at 10100 pM and the APRIL IC50 (Δ WT) came to 0.82.
